Results on two molecules are retold here after paper PMC6338834.

In data set [1] the target is T1, Mcm10 (Saccharomyces cerevisiae, UniProt P32354 1-571).
T1 sequence: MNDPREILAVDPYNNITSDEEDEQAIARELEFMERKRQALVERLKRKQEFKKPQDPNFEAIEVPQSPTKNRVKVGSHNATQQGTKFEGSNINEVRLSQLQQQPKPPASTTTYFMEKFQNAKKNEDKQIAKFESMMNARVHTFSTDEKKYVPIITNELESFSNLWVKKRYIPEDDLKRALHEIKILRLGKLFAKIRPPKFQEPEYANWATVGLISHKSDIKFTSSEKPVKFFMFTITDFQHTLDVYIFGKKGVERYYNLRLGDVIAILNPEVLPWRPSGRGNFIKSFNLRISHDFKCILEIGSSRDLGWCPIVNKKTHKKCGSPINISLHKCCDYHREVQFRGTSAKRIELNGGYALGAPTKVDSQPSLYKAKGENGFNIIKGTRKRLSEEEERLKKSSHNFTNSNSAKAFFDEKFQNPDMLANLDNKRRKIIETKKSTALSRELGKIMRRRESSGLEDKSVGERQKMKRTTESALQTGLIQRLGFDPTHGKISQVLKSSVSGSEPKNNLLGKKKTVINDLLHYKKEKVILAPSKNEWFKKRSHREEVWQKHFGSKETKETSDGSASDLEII
Nature of the data set: fluorescence anisotropy.

Data set [2] deals with RPA (Saccharomyces cerevisiae, UniProt P22336;P26754;P26755 1-621;1-273;1-122). Kind of data set: EMSA.
Chain of RPA (P22336 whole entry, chain 1 of 3): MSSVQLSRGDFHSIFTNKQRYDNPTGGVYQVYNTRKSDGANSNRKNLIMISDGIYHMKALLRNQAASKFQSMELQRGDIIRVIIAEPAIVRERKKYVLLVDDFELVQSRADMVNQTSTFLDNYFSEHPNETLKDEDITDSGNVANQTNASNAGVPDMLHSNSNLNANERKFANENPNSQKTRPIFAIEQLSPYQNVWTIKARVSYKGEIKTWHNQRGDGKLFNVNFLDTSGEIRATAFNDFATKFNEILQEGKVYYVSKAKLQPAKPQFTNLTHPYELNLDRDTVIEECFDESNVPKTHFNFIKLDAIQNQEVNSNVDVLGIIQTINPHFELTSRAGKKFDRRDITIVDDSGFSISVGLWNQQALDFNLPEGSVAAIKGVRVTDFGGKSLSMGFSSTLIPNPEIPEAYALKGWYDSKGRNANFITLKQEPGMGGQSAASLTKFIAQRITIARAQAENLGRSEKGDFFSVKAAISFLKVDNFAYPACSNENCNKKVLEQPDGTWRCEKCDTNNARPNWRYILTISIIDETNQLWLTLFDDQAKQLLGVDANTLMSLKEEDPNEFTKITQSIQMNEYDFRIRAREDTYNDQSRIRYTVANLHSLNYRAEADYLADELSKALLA
Chain of RPA (P26754 whole entry, chain 2 of 3): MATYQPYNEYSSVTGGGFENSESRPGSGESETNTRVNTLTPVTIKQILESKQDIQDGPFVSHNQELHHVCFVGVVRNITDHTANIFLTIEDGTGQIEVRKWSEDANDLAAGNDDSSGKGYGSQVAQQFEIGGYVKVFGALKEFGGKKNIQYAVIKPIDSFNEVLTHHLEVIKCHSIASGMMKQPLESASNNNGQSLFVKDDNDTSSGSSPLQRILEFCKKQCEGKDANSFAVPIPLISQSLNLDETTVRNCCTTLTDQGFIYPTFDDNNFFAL
Chain of RPA (P26755 whole entry, chain 3 of 3): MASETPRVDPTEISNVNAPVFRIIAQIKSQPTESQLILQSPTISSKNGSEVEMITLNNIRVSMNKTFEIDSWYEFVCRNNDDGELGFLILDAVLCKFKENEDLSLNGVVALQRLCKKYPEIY

B1: 3' FITC 60mer ssDNA (ssDNA)
DNA: TTTTTTTTTTTTTTTTTTTTTTTTTTTTTTGGTGAGGGTTGGGAAGTGGAAGGATGGGCT
Consider B1, for which the affinity in data set [1], expressed as Kd, was 50 nM.

B2: 5' flap lagging strand oligo (ssDNA)
DNA: TTTTTTTTTTTTTTTTTTTTTTTTTTTTTTTTTTTTTTTTTTTTTTTTTGACGCTGCCGAATTCTGGCTTGCTAGGACATTACAGGATCGTTCGGTCTC
modifications: last 5 linkages at 3' end thiodiester (phosphorothioate)
As to B2, the binding result in data set [2] is reported as “binds”.
